This assay concerns the target RSV-F (UniProt P03420 26-529). The assay can be described thus: SPR, similar method as for Cetuximab. On the technique in general: Surface plasmon resonance follows binding to a sensor surface in real time, without labels.

The record followed here is patent US20200231652A1 (NATIONAL RESEARCH COUNCIL OF CANADA, published 2020).

Chain of RSV-F (P03420 26-529): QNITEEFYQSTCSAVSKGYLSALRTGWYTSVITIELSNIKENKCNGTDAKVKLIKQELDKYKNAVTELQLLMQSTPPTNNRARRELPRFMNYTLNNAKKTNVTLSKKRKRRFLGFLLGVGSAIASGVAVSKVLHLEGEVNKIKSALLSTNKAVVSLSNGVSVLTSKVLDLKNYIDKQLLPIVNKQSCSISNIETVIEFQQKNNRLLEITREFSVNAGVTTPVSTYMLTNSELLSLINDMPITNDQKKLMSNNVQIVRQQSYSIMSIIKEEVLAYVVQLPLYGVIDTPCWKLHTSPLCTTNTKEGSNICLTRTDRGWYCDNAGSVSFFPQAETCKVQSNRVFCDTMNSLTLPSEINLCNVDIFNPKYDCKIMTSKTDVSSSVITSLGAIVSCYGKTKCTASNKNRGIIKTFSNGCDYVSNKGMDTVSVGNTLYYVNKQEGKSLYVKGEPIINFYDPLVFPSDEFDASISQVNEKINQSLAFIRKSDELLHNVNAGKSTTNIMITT

B1: Synagis (antibody, human IgG1, kappa, V domains shown)
VH: QVTLRESGPALVKPTQTLTLTCTFSGFSLSTSGMSVGWIRQPPGKALEWLADIWWDDKKDYNPSLKSRLTISKDTSKNQVVLKVTNMDPADTATYYCARSMITNWYFDVWGAGTTVTVSS
VL: DIQMTQSPSTLSASVGDRVTITCKCQLSVGYMHWYQQKPGKAPKLLIYDTSKLASGVPSRFSGSGSGTEFTLTISSLQPDDFATYYCFQGSGYPFTFGGGTKLEIKR
For the molecule B1, the Kd came to 6.6 nM.

As usually defined, the Kd is the concentration at which binding is half-saturated. Higher therefore signals a looser complex.
